The record followed here is patent US20140087995A1 (published 2014).

Numbered stars: 1 amine (or outer) side, 2 acyl side, 3 side chain; on linkers, the order of the positions; unused ones are H or OH. Bridge positions count the residues as written; N and C are the ends. Side chains are listed from the residue outwards. Ends that are not written are not given here. * marks the point of attachment. C20 diacid = O=C(O)CCCCCCCCCCCCCCCCCCC(=O)*; γGlu = O=C(O)[C@H](CCC(=O)[*:2])N[*:1]

B1: N^ε1-[(4S)-4-carboxy-4-[[(4S)-4-carboxy-4-(19-carboxynonadecanoylamino)butanoyl]amino]butanoyl]-[His14,Arg17,Pro21,Pro27]-h-amylin (peptide)
peptide: K([γGlu-γGlu-C20 diacid])CNTATCATQRLAHFLRHSSPNFGAIPSSTNVGSNTY-NH2
modifications: disulfide 2-7; N-terminus assumed
SMILES: CC[C@H](C)[C@H](NC(=O)[C@H](C)NC(=O)CNC(=O)[C@H](Cc1ccccc1)NC(=O)[C@H](CC(N)=O)NC(=O)[C@@H]1CCCN1C(=O)[C@H](CO)NC(=O)[C@H](CO)NC(=O)[C@H](Cc1c[nH]cn1)NC(=O)[C@H](CCCNC(=N)N)NC(=O)[C@H](CC(C)C)NC(=O)[C@H](Cc1ccccc1)NC(=O)[C@H](Cc1c[nH]cn1)NC(=O)[C@H](C)NC(=O)[C@H](CC(C)C)NC(=O)[C@H](CCCNC(=N)N)NC(=O)[C@H](CCC(N)=O)NC(=O)[C@@H](NC(=O)[C@H](C)NC(=O)[C@@H]1CSSC[C@H](NC(=O)[C@@H](N)CCCCNC(=O)CC[C@H](NC(=O)CC[C@H](NC(=O)CCCCCCCCCCCCCCCCCCC(=O)O)C(=O)O)C(=O)O)C(=O)N[C@@H](CC(N)=O)C(=O)N[C@@H]([C@@H](C)O)C(=O)N[C@@H](C)C(=O)N[C@@H]([C@@H](C)O)C(=O)N1)[C@@H](C)O)C(=O)N1CCC[C@H]1C(=O)N[C@@H](CO)C(=O)N[C@@H](CO)C(=O)N[C@H](C(=O)N[C@@H](CC(N)=O)C(=O)N[C@H](C(=O)NCC(=O)N[C@@H](CO)C(=O)N[C@@H](CC(N)=O)C(=O)N[C@H](C(=O)N[C@@H](Cc1ccc(O)cc1)C(N)=O)[C@@H](C)O)C(C)C)[C@@H](C)O
notes: also called compound 92
B2: N^ε1-[(4S)-4-carboxy-4-[[(4S)-4-carboxy-4-(19-carboxynonadecanoylamino)butanoyl]amino]butanoyl]-[Ser14,Arg17,Pro21,Pro27,Pro34,Glu35]-h-amylin (peptide)
peptide: K([γGlu-γGlu-C20 diacid])CNTATCATQRLASFLRHSSPNFGAIPSSTNVGPETY-NH2
modifications: disulfide 2-7; N-terminus assumed
SMILES: CC[C@H](C)[C@H](NC(=O)[C@H](C)NC(=O)CNC(=O)[C@H](Cc1ccccc1)NC(=O)[C@H](CC(N)=O)NC(=O)[C@@H]1CCCN1C(=O)[C@H](CO)NC(=O)[C@H](CO)NC(=O)[C@H](Cc1c[nH]cn1)NC(=O)[C@H](CCCNC(=N)N)NC(=O)[C@H](CC(C)C)NC(=O)[C@H](Cc1ccccc1)NC(=O)[C@H](CO)NC(=O)[C@H](C)NC(=O)[C@H](CC(C)C)NC(=O)[C@H](CCCNC(=N)N)NC(=O)[C@H](CCC(N)=O)NC(=O)[C@@H](NC(=O)[C@H](C)NC(=O)[C@@H]1CSSC[C@H](NC(=O)[C@@H](N)CCCCNC(=O)CC[C@H](NC(=O)CC[C@H](NC(=O)CCCCCCCCCCCCCCCCCCC(=O)O)C(=O)O)C(=O)O)C(=O)N[C@@H](CC(N)=O)C(=O)N[C@@H]([C@@H](C)O)C(=O)N[C@@H](C)C(=O)N[C@@H]([C@@H](C)O)C(=O)N1)[C@@H](C)O)C(=O)N1CCC[C@H]1C(=O)N[C@@H](CO)C(=O)N[C@@H](CO)C(=O)N[C@H](C(=O)N[C@@H](CC(N)=O)C(=O)N[C@H](C(=O)NCC(=O)N1CCC[C@H]1C(=O)N[C@@H](CCC(=O)O)C(=O)N[C@H](C(=O)N[C@@H](Cc1ccc(O)cc1)C(N)=O)[C@@H](C)O)C(C)C)[C@@H](C)O
notes: also called compound 120
B3: N^-1-[(4S)-4-carboxy-4-(19-carboxynonadecanoylamino)butanoyl]-Gly[Arg1,His14,Arg17,Pro21,Pro27,His34]-h-amylin (peptide)
peptide: {C20 diacid-γGlu}-GRCNTATCATQRLAHFLRHSSPNFGAIPSSTNVGHNTY-NH2
modifications: disulfide 3-8
SMILES: CC[C@H](C)[C@H](NC(=O)[C@H](C)NC(=O)CNC(=O)[C@H](Cc1ccccc1)NC(=O)[C@H](CC(N)=O)NC(=O)[C@@H]1CCCN1C(=O)[C@H](CO)NC(=O)[C@H](CO)NC(=O)[C@H](Cc1c[nH]cn1)NC(=O)[C@H](CCCNC(=N)N)NC(=O)[C@H](CC(C)C)NC(=O)[C@H](Cc1ccccc1)NC(=O)[C@H](Cc1c[nH]cn1)NC(=O)[C@H](C)NC(=O)[C@H](CC(C)C)NC(=O)[C@H](CCCNC(=N)N)NC(=O)[C@H](CCC(N)=O)NC(=O)[C@@H](NC(=O)[C@H](C)NC(=O)[C@@H]1CSSC[C@H](NC(=O)[C@H](CCCNC(=N)N)NC(=O)CNC(=O)CC[C@H](NC(=O)CCCCCCCCCCCCCCCCCCC(=O)O)C(=O)O)C(=O)N[C@@H](CC(N)=O)C(=O)N[C@@H]([C@@H](C)O)C(=O)N[C@@H](C)C(=O)N[C@@H]([C@@H](C)O)C(=O)N1)[C@@H](C)O)C(=O)N1CCC[C@H]1C(=O)N[C@@H](CO)C(=O)N[C@@H](CO)C(=O)N[C@H](C(=O)N[C@@H](CC(N)=O)C(=O)N[C@H](C(=O)NCC(=O)N[C@@H](Cc1c[nH]cn1)C(=O)N[C@@H](CC(N)=O)C(=O)N[C@H](C(=O)N[C@@H](Cc1ccc(O)cc1)C(N)=O)[C@@H](C)O)C(C)C)[C@@H](C)O
notes: also called compound 100
B4: N^-1-[(4S)-4-carboxy-4-(19-carboxynonadecanoylamino)butanoyl]-Gly[Arg1,Ala14,Arg17,Pro21,Pro27,His34]-h-amylin (peptide)
peptide: {C20 diacid-γGlu}-GRCNTATCATQRLAAFLRHSSPNFGAIPSSTNVGHNTY-NH2
modifications: disulfide 3-8
SMILES: CC[C@H](C)[C@H](NC(=O)[C@H](C)NC(=O)CNC(=O)[C@H](Cc1ccccc1)NC(=O)[C@H](CC(N)=O)NC(=O)[C@@H]1CCCN1C(=O)[C@H](CO)NC(=O)[C@H](CO)NC(=O)[C@H](Cc1c[nH]cn1)NC(=O)[C@H](CCCNC(=N)N)NC(=O)[C@H](CC(C)C)NC(=O)[C@H](Cc1ccccc1)NC(=O)[C@H](C)NC(=O)[C@H](C)NC(=O)[C@H](CC(C)C)NC(=O)[C@H](CCCNC(=N)N)NC(=O)[C@H](CCC(N)=O)NC(=O)[C@@H](NC(=O)[C@H](C)NC(=O)[C@@H]1CSSC[C@H](NC(=O)[C@H](CCCNC(=N)N)NC(=O)CNC(=O)CC[C@H](NC(=O)CCCCCCCCCCCCCCCCCCC(=O)O)C(=O)O)C(=O)N[C@@H](CC(N)=O)C(=O)N[C@@H]([C@@H](C)O)C(=O)N[C@@H](C)C(=O)N[C@@H]([C@@H](C)O)C(=O)N1)[C@@H](C)O)C(=O)N1CCC[C@H]1C(=O)N[C@@H](CO)C(=O)N[C@@H](CO)C(=O)N[C@H](C(=O)N[C@@H](CC(N)=O)C(=O)N[C@H](C(=O)NCC(=O)N[C@@H](Cc1c[nH]cn1)C(=O)N[C@@H](CC(N)=O)C(=O)N[C@H](C(=O)N[C@@H](Cc1ccc(O)cc1)C(N)=O)[C@@H](C)O)C(C)C)[C@@H](C)O

In the first experiment the target is T1, rat calcitonin receptor (rat, UniProt P32214 25-516).
T1 construct: whole, on cells; Membranes of transiently transfected BHK tk'ts 13 cells (Assay VIII); also called rCTR
T1 sequence (looked up): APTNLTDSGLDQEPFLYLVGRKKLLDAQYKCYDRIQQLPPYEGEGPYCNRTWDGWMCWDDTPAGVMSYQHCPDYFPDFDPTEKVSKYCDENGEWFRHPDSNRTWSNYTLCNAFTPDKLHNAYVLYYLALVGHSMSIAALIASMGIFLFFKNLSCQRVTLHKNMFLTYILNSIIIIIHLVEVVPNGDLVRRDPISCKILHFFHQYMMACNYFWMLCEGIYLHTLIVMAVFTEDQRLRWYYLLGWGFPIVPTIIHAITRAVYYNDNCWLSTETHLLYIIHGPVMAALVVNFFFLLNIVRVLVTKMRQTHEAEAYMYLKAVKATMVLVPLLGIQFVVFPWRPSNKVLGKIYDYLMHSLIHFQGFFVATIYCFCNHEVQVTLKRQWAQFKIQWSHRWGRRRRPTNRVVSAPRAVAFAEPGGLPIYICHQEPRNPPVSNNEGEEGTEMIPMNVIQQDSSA
In words: ratio IC50 rat calcitonin receptor / IC50 rat amylin receptor (reference).
In the case of B1, the “Ratio rCT/rAmylin binding” value came out at 156.

In the case of B2, the “Ratio rCT/rAmylin binding” value was 868.

With B3, the “Ratio rCT/rAmylin binding” value amounted to 27.7.

For {C20 diacid-γGlu}-GRCNTATCATQRLAAFLRHSSPNFGAIPSSTNVGPNTY-NH2 (disulfide 3-8), the “Ratio rCT/rAmylin binding” value came to 129.

With B4, the “Ratio rCT/rAmylin binding” value came to 60.9.

In another experiment the target is T1, rat calcitonin receptor. In words: SPA competition with 125I-calcitonin, membranes of BHK cells with rat calcitonin receptor (Assay VIII).
Usually IC50 stands for the point on the concentration scale where inhibition reaches its midpoint. In the case of B1, the IC50 is 104 nM.

In the case of B2, the IC50 was determined as 140 nM.

B3: the IC50 was 311 nM.

In the case of {C20 diacid-γGlu}-GRCNTATCATQRLAAFLRHSSPNFGAIPSSTNVGPNTY-NH2 (disulfide 3-8), the IC50 was 56.3 nM.

For B4, the IC50 amounted to 492 nM.

The target of a further experiment is T2, human calcitonin receptor (human, UniProt P30988 25-474).
T2 construct: whole, on cells; Membranes of a stably transfected BHK cell line (Assay VII); also called hCTR; hCT
T2 sequence (looked up): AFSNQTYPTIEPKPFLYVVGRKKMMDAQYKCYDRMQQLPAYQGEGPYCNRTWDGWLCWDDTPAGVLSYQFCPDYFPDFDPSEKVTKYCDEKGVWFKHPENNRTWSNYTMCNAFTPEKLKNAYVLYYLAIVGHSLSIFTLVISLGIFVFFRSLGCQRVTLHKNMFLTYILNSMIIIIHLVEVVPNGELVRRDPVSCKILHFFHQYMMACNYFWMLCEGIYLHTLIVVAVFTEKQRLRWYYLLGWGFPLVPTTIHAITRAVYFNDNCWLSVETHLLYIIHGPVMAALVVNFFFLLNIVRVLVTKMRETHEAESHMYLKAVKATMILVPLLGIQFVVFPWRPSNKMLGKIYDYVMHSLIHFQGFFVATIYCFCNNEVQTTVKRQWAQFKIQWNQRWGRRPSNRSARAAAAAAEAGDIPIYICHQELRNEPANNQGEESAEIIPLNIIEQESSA
Nature of the experiment: ratio IC50 human calcitonin receptor / IC50 human amylin receptor (reference). Summed up: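 Scintillation proximity competition binding on cell membranes at 35 ng/μL with SPA beads, in 50 mM Hepes pH 7.4, 1 mM CaCl2, 5 mM MgCl₂, 0.1% OA, 0.02% Tween20. Incubated 120 min at 25° C with shaking. IC₅₀ from one-site competition fit.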
As for B1, the “Ratio hCT/hAmylin binding” value is 145.

Take B2: the “Ratio hCT/hAmylin binding” value was determined as 45.3.

Take B3: the “Ratio hCT/hAmylin binding” value came to 65.3.

Consider {C20 diacid-γGlu}-GRCNTATCATQRLAAFLRHSSPNFGAIPSSTNVGPNTY-NH2 (disulfide 3-8), for which the “Ratio hCT/hAmylin binding” value amounted to 26.5.

On to B4, for which the “Ratio hCT/hAmylin binding” value stood at 68.6.

The next experiment addresses T3, rat amylin receptor (rat calcitonin receptor + rat RAMP 3) (rat, UniProt P32214 25-516; Q9JJ73 23-147).
T3 construct: whole, on cells; Membranes of transiently transfected BHK tk'ts 13 cells (Assay VI); also called rAmylin-R; rat amylin 3(a) receptor
T3 sequence (looked up) 1: T1 sequence (looked up)
T3 sequence (looked up) 2: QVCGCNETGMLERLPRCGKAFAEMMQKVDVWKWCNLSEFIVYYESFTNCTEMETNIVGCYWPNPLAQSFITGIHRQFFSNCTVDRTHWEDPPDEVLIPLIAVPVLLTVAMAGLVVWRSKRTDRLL
In words: SPA competition with 125I-rat amylin, membranes of BHK cells with rat calcitonin receptor + rat RAMP3 (Assay VI).
As to B1, the concentration for half-maximal inhibition (IC50) is 0.668 nM.

Consider B2, for which the IC50 turned out to be 0.161 nM.

On to B3, for which the 50% inhibitory concentration (IC50) was 11.2 nM.

As to {C20 diacid-γGlu}-GRCNTATCATQRLAAFLRHSSPNFGAIPSSTNVGPNTY-NH2 (disulfide 3-8), the IC50 is 0.436 nM.

On to B4, for which the IC50 was 8.07 nM.
